Measured values taken from PMC9891163 (Drug Delivery, 2023).

Assay: Aqueous dispersibility of the peptide-lipid conjugate
Type: physicochemical

## (Dipalmitoyl)lysine-KSS-(SG)5-ApoEdp [ApoEdp-SG-lipid]
  Aqueous dispersibility: excellent aqueous dispersibility
